Measurements as given in publication PMC3946611, “hCLE/C14orf166 Associates with DDX1-HSPC117-FAM98B in a Novel Transcription-Dependent Shuttling RNA-Transporting Complex” (PLoS ONE, 2014).

Molecular target: the molecule itself
Experiment: native gel or EMSA; purified hCLE-CBD, dialyzed, non-denaturing gel, Western blot against hCLE

B1: hCLE-TAP tagged protein, purified as hCLE-CBD (natural protein, human, UniProt Q9Y224 1-244, looked up)
chain: MFRRKLTALDYHNPAGFNCKDETEFRNFIVWLEDQKIRHYKIEDRGNLRNIHSSDWPKFFEKYLRDVNCPFKIQDRQEAIDWLLGLAVRLEYGDNAEKYKDLVPDNSKTADNATKNAEPLINLDVNNPDFKAGVMALANLLQIQRHDDYLVMLKAIRILVQERLTQDAVAKANQTKEGLPVALDKHILGFDTGDAVLNEAAQILRLLHIEELRELQTKINEAIVAVQAIIADPKTDHRLGKVGR
notes: hCLE/C14orf166, human; In the cells the protein carries the whole TAP tag (hCLE-TAP); after the TEV step of the purification it is hCLE-CBD; also called hCLE/C14orf166; protein C14orf166 (CLE); source: HEK293T, transfected with pChCLE-TAP; TAP purified (IgG-Sepharose, Calmodulin-Agarose) from total, nuclear or cytosolic extracts
- stoichiometry N: 2
